From patent US20020045590A1 (Johns Hopkins, published 2002)
One block for each binder: values may come before it.

Columns and labels:
[1] = molecular target: T1, neuronal nitric oxide synthase (nNOS) (rat, UniProt P29476 1-1429, limits assumed); experiment: GST fusion protein binding assay with rat hippocampus membrane proteins, immunoblot
T1 construct: Endogenous rat protein
Description: We utilized the yeast two-hybrid system to investigate the effects of halothane on protein interactions within the NMDA receptor signaling complex. The PDZ domain of nNOS or the C-terminus of NMDA receptor subunit 2B (NR2B) was fused in frame with the GAL4 DNA-binding domain in a yeast vector, pGBT9. […] Both yeast vectors were co-transformed into the Y190 yeast strain, which was then grown in the absence or presence of halothane at clinically relevant concentrations. Protein-protein interactions were confirmed by both yeast growth on -Leu/-Trp/-His (-LTH) medium and lacz expression. To confirm the yeast two-hybrid results, the GST fusion protein binding assay was performed. […] After extensive washing, the bound proteins were eluted by boiling in 1 X SDS-PAGE sample buffer and detected by immunoblotting.

[2] = molecular target: T2, postsynaptic density-95 (PSD-95)/synapse-associated protein-90 (SAP90) (rat, UniProt P31016 1-724); experiment: co-immunoprecipitation from rat spinal cord PSD fraction, immunoblot
T2 construct: Endogenous protein from rat spinal cord PSD fraction, pulled down by co-immunoprecipitation; also called PSD-95/SAP90
T2 sequence (P31016 whole entry): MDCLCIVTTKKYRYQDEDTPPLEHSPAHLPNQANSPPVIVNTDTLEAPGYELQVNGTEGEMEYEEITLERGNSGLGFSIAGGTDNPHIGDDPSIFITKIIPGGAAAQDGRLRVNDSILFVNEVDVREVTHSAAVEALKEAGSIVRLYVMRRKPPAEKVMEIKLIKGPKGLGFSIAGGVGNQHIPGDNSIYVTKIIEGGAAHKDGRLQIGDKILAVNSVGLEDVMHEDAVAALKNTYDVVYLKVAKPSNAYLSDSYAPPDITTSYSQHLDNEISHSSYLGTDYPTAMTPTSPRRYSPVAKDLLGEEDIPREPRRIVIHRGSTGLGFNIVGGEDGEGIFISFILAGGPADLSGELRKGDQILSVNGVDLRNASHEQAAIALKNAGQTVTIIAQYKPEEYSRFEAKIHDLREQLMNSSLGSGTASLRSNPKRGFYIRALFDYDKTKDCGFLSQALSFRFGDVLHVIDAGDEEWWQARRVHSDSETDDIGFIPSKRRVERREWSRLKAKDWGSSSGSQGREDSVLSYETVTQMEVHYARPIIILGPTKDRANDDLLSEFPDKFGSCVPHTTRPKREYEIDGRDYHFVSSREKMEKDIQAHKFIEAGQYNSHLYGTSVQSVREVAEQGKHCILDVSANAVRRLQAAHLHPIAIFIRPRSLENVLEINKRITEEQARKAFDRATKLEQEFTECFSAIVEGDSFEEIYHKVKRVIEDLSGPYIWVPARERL

T1 sequence (P29476 whole entry, the tested form may be a part): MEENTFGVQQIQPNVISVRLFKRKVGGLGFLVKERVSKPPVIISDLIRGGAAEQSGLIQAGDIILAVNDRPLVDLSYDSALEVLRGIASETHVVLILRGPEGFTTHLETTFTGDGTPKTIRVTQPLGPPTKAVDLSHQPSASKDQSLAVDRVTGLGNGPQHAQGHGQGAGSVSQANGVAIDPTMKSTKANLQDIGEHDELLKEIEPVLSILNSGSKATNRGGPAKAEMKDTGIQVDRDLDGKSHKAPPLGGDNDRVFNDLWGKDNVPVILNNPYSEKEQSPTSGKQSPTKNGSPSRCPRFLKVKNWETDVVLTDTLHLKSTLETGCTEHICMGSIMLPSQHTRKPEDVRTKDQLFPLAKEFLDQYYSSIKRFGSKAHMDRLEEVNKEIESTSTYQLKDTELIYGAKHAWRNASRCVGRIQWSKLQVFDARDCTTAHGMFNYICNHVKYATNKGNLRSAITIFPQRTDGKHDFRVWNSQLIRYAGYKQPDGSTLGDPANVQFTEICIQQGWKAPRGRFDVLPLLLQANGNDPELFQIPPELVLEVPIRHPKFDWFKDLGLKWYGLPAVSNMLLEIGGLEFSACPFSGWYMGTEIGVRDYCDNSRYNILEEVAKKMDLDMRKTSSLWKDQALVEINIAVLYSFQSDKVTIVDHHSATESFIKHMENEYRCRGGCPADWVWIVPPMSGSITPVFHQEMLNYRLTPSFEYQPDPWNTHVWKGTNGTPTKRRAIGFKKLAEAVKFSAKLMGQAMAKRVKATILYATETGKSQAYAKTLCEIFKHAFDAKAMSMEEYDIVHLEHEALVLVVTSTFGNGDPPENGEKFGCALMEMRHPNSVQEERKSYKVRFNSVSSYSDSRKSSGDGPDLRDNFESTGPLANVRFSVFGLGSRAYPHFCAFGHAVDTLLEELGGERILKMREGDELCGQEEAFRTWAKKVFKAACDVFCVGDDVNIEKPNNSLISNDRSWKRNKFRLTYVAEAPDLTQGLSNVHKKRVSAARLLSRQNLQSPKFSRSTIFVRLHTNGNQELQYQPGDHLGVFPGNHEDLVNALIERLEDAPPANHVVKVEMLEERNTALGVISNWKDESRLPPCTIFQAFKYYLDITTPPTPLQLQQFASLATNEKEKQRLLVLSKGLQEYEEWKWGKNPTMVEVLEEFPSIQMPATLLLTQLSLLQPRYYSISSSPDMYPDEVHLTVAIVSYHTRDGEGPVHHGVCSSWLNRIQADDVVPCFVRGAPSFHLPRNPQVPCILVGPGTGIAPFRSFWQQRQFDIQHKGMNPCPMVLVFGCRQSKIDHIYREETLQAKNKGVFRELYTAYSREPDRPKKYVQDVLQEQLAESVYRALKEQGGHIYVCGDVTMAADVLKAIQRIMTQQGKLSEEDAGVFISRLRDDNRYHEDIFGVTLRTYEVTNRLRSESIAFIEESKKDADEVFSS

B1: GST-fusion protein consisting of the second PDZ domain of PSD-95 (other, UniProt P31016 160-246, looked up)
chain: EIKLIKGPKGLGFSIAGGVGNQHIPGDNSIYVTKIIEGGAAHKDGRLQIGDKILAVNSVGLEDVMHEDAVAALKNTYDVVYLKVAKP
notes: domain: second PDZ domain; Expressed in bacterial BL21 cells, purified on glutathione-coupled agarose; also called GST-PSD-95; GST-fusion PSD-95; not shown: glutathione S-transferase (GST) tag
binding result [1]: binds

binding result [1]: binds
B2: GST-fusion protein consisting of the second PDZ domain of PSD-93 (other, UniProt Q63622 193-279, looked up)
chain: EIKLFKGPKGLGFSIAGGVGNQHIPGDNSIYVTKIIDGGAAQKDGRLQVGDRLLMVNNYSLEEVTHEEAVAILKNTSDVVYLKVGKP
notes: domain: second PDZ domain; Expressed in bacterial BL21 cells, purified on glutathione-coupled agarose; also called GST-PSD-93; GST-fusion PSD-93; not shown: glutathione S-transferase (GST) tag

binding result [2]: no binding
B3: endothelial NOS (eNOS) (enzyme, rat, UniProt Q62600 2-1202, looked up)
chain: GNLKSVGQEPGPPCGLGLGLGLGLCGKQGPASPAPEPSQAPVPPSPTRPAPDHSPPLTRPPDGPKFPRVKNWEVGSITYDTLSAQAQQDGPCTPRRCLGSLVFPRKLQSRPTQGPSPTEQLLGQARDFINQYYNSIKRSGSQAHEQRLQEVEAEVVATGTYQLRESELVFGAKQAWRNAPRCVGRIQWGKLQVFDARDCRTAQEMFTYICNHIKYATNRGNLRSAITVFPQRYAGRGDFRIWNSQLVRYAGYRQQDGSVRGDPANVEITELCIQHGWTPGNGRFDVLPLLLQAPDEPPELFTLPPELVLEVPLEHPTLEWFAALGLRWYALPAVSNMLLEIGGLEFPAAPFSGWYMSSEIGMRDLCDPHRYNILEDVAVCMDLDTRTTSSLWKDKAAVEINVAVLYSYQLAKVTIVDHHAATASFMKHLENEQKARGGCPADWAWIVPPISGSLTPVFHQEMVNYFLSPAFRYQPDPWKGSAAKGTGITRKKTFKEVANAVKISASLMGTVMAKRVKATILYGSETGRAQSYAQQLGRLFRKAFDPRVLCMDEYDVVSLEHEALVLVVTSTFGNGDPPENGESFAAALMEMSGPYNSSPRPEQHKSYKIRFNSVSCSDPLVSSWRRKRKESSNTDSAGALGTLRFCVFGLGSRAYPHFCAFARAVDTRLEELGGERLLQLGQGDELCGQEEAFRGWAQAAFQAACETFCVGEDAKAAARDIFSPKRSWKRQRYRLSTQAESLQLLPRLTHVHRRKMFQATILSVENLQSSKSTRATILVRLDTGSQEGLQYQPGDHIGVCPPNRPGLVEALLSRVEDPPPSTEPVAVEQLEKGSPGGPPPGWVRDPRLPPCTLRQALTYFLDITSPPSPRLLRLLSTLAEESSEQQELEALSQDPRRYEEWKWFRCPTLLEVLEQFPSVALPAPLILTQLPLLQPRYYSVSSAPSAHPGEIHLTVAVLAYRTQDGLGPLHYGVCSTWMSQLKAGDPVPCFIRGAPSFRLPPDPNLPCILVGPGTGIAPFRGFWQDRLHDIEIKGLQPAPMTLVFGCRCSQLDHLYRDEVLDAQQRGVFGQVLTAFSRDPGSPKTYVQDLLRTELAAEVHRVLCLEQGHMFVCGDVTMATSVLQTVQRILATEGSMELDEAGDVIGVLRDQQRYHEDIFGLTLRTQEVTSRIRTQSFSLQERQLRGAVPWSFDPPTQETPGS
notes: Endogenous rat protein
